Experimental data reported in US10456446B2, “Use of human small leucine zipper protein in osteogenesis procedure” (Korea University Research and Business Foundation, priority 2013, dated 2019).

Experiments:
MEF cells = assay: Osteoblast differentiation in MEF cells, alizarin red staining; format: cell-based; settings: differentiation medium for 8 days
Experimental: Primary human mesenchymal stem cells (MSCs), C3H10T1/2, 293T and MEF cells were cultured in a DMEM to which thermally inactivated 10% FBS and penicillin (100 U/mL)/streptomycin (100 μg/mL) were added. All cell types were cultured in a humidified incubator containing CO2 5% under a temperature condition of 37° C. In order to induce osteoblast differentiation, the medium was exchanged with a DMEM in which 50 μg/mL of ascorbic acid, 10 mM of β-glycerophosphate and 10% FBS were contained for 8 days. The differentiation medium was changed once every two days.
Therefore, in order to characterize a potential role of sLZIP in the transcriptional activity of Runx2 by inhibiting the transcriptional activity of PPARγ2, the transcriptional activity of Runx2 was examined. For this purpose, 293T cells were temporarily transfected with Runx2 (0.5 μg), β-galactosidase (0.1 μg), 6 copies of Runx2 response elements (0.2 μg) and sLZIP at different contents (0.1 μg to 0.5 μg) (FIG. 7A). PPARγ2 (0.5 μg), β-galactosidase, Runx2, 6 copies of Runx2 response elements and sLZIP (0.5 μg) were expressed in the 293T cells (FIG. 7B). 293T cells were temporarily transfected with HDAC3 (0.5 μg), Runx2, β-galactosidase, 6 copies of Runx2 response elements and sLZIP at different contents (0.25 and 0.5 μg) (FIG. 7C). A promoter activity was measured by luciferase analysis. […]

HDAC3 = molecular target: T1, HDAC3 (Homo sapiens, UniProt O15379); assay: HDAC3 ubiquitination, GST pull-down with Ha-UB in 293T cells; format: cell-based; settings: ligand treated (10 nM RZD, 24 hours)
T1 construct: expressed in transfected cells; host or cells: 293T
T1 sequence (O15379 whole entry, species assumed): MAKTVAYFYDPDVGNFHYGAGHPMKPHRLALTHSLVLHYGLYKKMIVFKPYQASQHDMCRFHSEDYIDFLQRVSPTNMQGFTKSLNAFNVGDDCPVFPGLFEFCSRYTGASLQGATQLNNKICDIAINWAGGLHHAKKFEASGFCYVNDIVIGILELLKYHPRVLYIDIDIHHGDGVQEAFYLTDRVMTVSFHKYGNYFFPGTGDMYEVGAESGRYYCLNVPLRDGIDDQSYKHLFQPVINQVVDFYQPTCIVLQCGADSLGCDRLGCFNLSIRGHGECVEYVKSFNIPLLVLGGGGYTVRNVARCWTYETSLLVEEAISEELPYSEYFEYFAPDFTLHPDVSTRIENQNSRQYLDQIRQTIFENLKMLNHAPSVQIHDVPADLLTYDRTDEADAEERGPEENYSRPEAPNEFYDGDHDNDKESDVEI
Experimental: Therefore, in order to understand a regulation mechanism of sLZIP in the PPARγ2 transcriptional activity by binding to the FABP4 promoter region, an effect of sLZIP on the interaction between PPARγ2 and HDAC3 was examined. For this purpose, 293T cells were transfected with GST-HDAC3, Myc-PPARγ2 and Flag-sLZIP, and were treated or not treated with 10 nM of RZD for 24 hours. Cell lysates were subjected to GST pull-down analysis using a glutathione 4B bead, and a protein complex was analyzed in SDS-PAGE, and then immunoblotted with anti-GST, anti-Myc and anti-Flag antibodies (FIG. 6A). GST-HDAC3, GST-PPARγ2, Myc-PPARγ2, Flag-sLZIP and Ha-UB were expressed in the 293T cells, and the cells were treated with 10 nM of RZD for 24 hours. Cell lysates were subjected to GST pull-down analysis (FIG. 6B). GST-PPARγ2 and Flag-sLZIP were expressed in the 293T cells and treated with 10 nM of RZD for 24 hours. Cell lysates were subjected to GST pull-down analysis, and a protein complex was analyzed in SDS-PAGE, and then immunoblotted with anti-PGC1α, anti-GST and anti-Flag antibodies (FIG. 6C).

sLZIP TG mouse embryos = assay: Cartilage development, alcian blue staining of sLZIP TG mouse embryos on E12.5; format: in vivo; settings: E12.5, compared with wild type
Text: In order to generate human sLZIP transgenic (TG) mice, sLZIP genes were cloned into a pCMV-flag expression vector. The sLZIP TG mice were generated by Macrogen, Inc (Seoul, Korea). Transgenic founders were mated with wild type C57BL/6 mice to produce F1 heterozygotes. F1-F4 generations were genetically screened for transgenes at an age of 2 weeks old. The following two primers were used to amplify genomic DNA in order to identify wild type and TG mice: 5′-GGACGATGATGACAAGGACT-3′ (SEQ ID NO: 25) and 5′-GTCAGAGGAGTACATGCTGCT-3′(SEQ ID NO: 26).
When a bone is initially developed during an embryo, cartilage is formed and hardened to a bone according to a so-called ossification (or osteogenesis) process. In order to examine whether sLZIP-mediated osteogenesis is associated with cartilage development, an effect of sLZIP in chondrocyte differentiation was examined. For this purpose, ATDC5 cells were temporarily transfected with sLZIP at different contents (0.1 μg to 0.5 μg). Total RNA was extracted from the cells, and an mRNA expression level of a chondrocyte marker was measured using RT-PCR analysis (FIG. 8A) and real-time PCR (FIG. 8B). GAPDH was used as an internal control group. An experiment was repeated three times. […] Total RNA was extracted from the mature osteoclasts, and an mRNA expression level of an osteoclast marker was measured using real-time PCR (FIG. 8D). […]

HDAC3 ubiquitination (HDAC3): inhibited HDAC3 ubiquitination
B1: sLZIP: human small leucine-zipper protein, isoform of LZIP, 354 amino acids, no transmembrane domain, GenBank FJ263669, SEQ ID NO: 1 (protein, listed as Homo sapiens)
chain: MELELDAGDQDLLAFLLEESGDLGTAPDEAVRAPLDWALPLSEVPSDWEVDDLLCSLLSPPASLNILSSSNPCLVHHDHTYSLPRETVSMDLESESCRKEGTQMTPQHMEELAEQEIARLVLTDEEKSLLEKEGLILPETLPLTKTEEQILKRVRRKIRNKRSAQESRRKKKVYVGGLESRVLKYTAQNMELQNKVQLLEEQNLSLLDQLRKLQAMVIEISNKTSSSSMYSSDTRGSLPAEHGVLSRQLRALPSEDPYQLELPALQSEVPKDSTHQWLDGSDCVLQAPGNTSCLLHYMPQAPSAEPPLEWPFPDLFSEPLCRGPILPLQANLTRKGGWLPTGSPSVILQDRYSG
osteoblast differentiation and bone nodule formation (MEF cells): promoted osteoblast differentiation and bone nodule formation
cartilage development of leg and tail (sLZIP TG mouse embryos): no difference
